Reference: patent EP4596580A1 (Staidson (Beijing) Biopharmaceuticals Co., Ltd., dated 2025)
Where two headings read alike, the source gives them in different places.

Assays:
[1] = target: T1, His-human LIGHT (human); assay: SPR, Biacore 8K, antibody on CM5 chip
T1 construct: also called His-huLIGHT; free LIGHT
T1 chain: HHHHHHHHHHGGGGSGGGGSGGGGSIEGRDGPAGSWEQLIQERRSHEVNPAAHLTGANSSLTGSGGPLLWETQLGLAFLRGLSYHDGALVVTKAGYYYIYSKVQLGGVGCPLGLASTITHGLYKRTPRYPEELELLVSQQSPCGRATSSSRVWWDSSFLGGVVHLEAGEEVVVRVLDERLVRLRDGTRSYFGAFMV

[2] = target: T2, His-cynomolgus monkey LIGHT (cynomolgus monkey); assay: SPR, Biacore 8K, antibody on CM5 chip
T2 construct: also called His-cynoLIGHT
T2 chain: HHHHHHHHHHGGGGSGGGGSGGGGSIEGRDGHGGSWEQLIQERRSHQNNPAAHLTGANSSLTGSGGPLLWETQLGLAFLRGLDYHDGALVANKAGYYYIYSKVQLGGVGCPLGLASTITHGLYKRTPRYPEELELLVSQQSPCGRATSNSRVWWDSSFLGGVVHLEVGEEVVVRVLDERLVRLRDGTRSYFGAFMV

[3] = target: T1, His-human LIGHT; assay: ELISA, His-huLIGHT coated
[4] = target: T1, His-human LIGHT; assay: cell-based or functional assay
[5] = target: T3, His-mouse LIGHT (mouse); assay: ELISA, His-musLIGHT coated
T3 construct: also called His-musLIGHT
T3 chain: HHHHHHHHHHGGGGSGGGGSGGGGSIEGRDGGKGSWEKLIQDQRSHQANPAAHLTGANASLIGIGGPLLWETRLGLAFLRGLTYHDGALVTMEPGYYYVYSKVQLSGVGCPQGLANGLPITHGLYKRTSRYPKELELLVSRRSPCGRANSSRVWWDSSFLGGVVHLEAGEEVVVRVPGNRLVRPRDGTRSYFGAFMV

[6] = target: T1, His-human LIGHT; assay: ELISA, His-huLIGHT coated
[7] = target: LIGHT on the surface of HEK293-LIGHT stable cells (human, UniProt O43557 1-240); assay: cell-based or functional assay
[8] = target: T1, His-human LIGHT; assay: cell-based or functional assay
[9] = target: T4, hFc-human LIGHT (human); assay: competition ELISA, LTβR-His coated, hFc-huLIGHT added
T4 construct: also called hFc-huLIGHT

[10] = target: T2, His-cynomolgus monkey LIGHT; assay: ELISA, His-cynoLIGHT coated
[11] = target: T1, His-human LIGHT; assay: cell-based or functional assay
[12] = target: T4, hFc-human LIGHT; assay: competition ELISA, LTβR-His coated, hFc-huLIGHT added; remark: listed apart in the source
[13] = target: T1, His-human LIGHT; assay: ELISA, His-huLIGHT coated

B1: LT-m55 (antibody, human IgG4, V domains shown)
VH: EVQLQQSGAELVKPGASVKLSCKASGYTFATYYMYWVKQRPGQGLEWIGEINPTNGGTIFNEKFKTKATLTVDKSSSTAYMQLSSLTSEDSAVYYCARGNWPYWSFDVWGAGTSVTVSS
VL: DIVLTQSPASLAVSLGQRATISCKASQSVDFDGDNYMNWYQQKPGQPPKLLIYAASNLDSGIPARFSASGSGTDFTLNIHPVEEEDAATYYCQQSIEDPWTFGGGTKLEIK
Kd [1]: 0.0685 nM
koff [1]: 6.01e-05 s⁻¹
kon [1]: 877000 M⁻¹ s⁻¹
Kd [2]: 0.0613 nM
koff [2]: 5.86e-05 s⁻¹
kon [2]: 956000 M⁻¹ s⁻¹
EC50 [3]: 0.0332 mg/L
IC50, HVEM NF-κB luciferase reporter (293T-HVEM-NF-κB-Luc), free LIGHT [4]: 0.264 mg/L
binding result [5]: no binding

B2: LT-m58 (antibody, human IgG4, V domains shown)
VH: QVQLQQSGAEMASPGASVTLSCKASGYTFIDHIMNWVKKRPGQGLEWIGRIYPVSGETNYNQKFMGKATFSVDRSSSTVYMVLNSLTSEDPAVYYCGRGSYYWNAMDYWGQGTTLTVSS
VL: DIVMTQSPASLAVSLGQRATISCKASQSVDFDGDSYMNWYQQKPGQPPKLLIYSASNLESGIPARFSGSGSGTDFTLNIHPVEEEDAATYYCQQSIEDPWTFGGGTKLEIK
Kd [1]: 0.0696 nM
koff [1]: 2.67e-05 s⁻¹
kon [1]: 385000 M⁻¹ s⁻¹
Kd [2]: 0.0347 nM
koff [2]: 1.24e-05 s⁻¹
kon [2]: 357000 M⁻¹ s⁻¹
EC50 [3]: 0.0243 mg/L
IC50, HVEM NF-κB luciferase reporter (293T-HVEM-NF-κB-Luc), free LIGHT [4]: 0.318 mg/L
binding result [5]: no binding

B3: LT-m85 (antibody, human IgG4, V domains shown)
VH: EVQLQQSGAELVKPGASVKMSCKASGYTFTSYNVHWVKQTPGQGLEWIGAVYPGNGDTSYNQKFKGKATLTADKSSNTAYMQLSSLTSEDSAVYYCARGSYYYTSSYFDHWGQGTTLTVSS
VL: DIVLTQSPASLAVSLGQRATISCKASQSVDFDGDSYMNWYQQKPGQPPKLLIYTASNLESGIPARFTGSGSGTDFTLNIHPVEEEDAATYYCQQSYEDPFTFGSGTKLEIK
Kd [1]: 0.0674 nM
koff [1]: 5.28e-05 s⁻¹
kon [1]: 783000 M⁻¹ s⁻¹
Kd [2]: 0.0601 nM
koff [2]: 6.72e-05 s⁻¹
kon [2]: 1.12e+06 M⁻¹ s⁻¹
EC50 [3]: 0.0121 mg/L
IC50, HVEM NF-κB luciferase reporter (293T-HVEM-NF-κB-Luc), free LIGHT [4]: 0.124 mg/L
binding result [5]: no binding

B4: hum_LT-m37-2 (antibody, human IgG4, V domains shown)
VH: QVQLVQSGAEVKKPGASVKVSCKASGYSFTGYFINWVRQAPGQGLEWIGRIYPYNVNTFYNQNFKGRATLTADKSTSTAYMELSSLRSEDTAVYYCGRGTHYYGSSGAMDYWGQGTLVTVSS
VL: EIVLTQSPATLSVSPGERATLSCKASQNVGTAVAWYQQKPGQSPRLLIYSASNRYTGIPARFSGSGSGTEFTLTISSLQSEDFAVYFCQQYSSYPYTFGGGTKVEIK
notes: humanized from LT-m37
EC50 [6]: 0.081 mg/L
IC50, LTβR NF-κB luciferase reporter, HEK293-LIGHT cells [7]: 3.54 mg/L
IC50, LTβR NF-κB luciferase reporter, free LIGHT [8]: 0.293 mg/L
IC50 [9]: 0.0598 nM
EC50 [10]: 0.0517 nM
IC50, HVEM NF-κB luciferase reporter, free LIGHT [11]: 0.0918 mg/L

B5: hum_LT-m58-4 (antibody, human IgG4, V domains shown)
VH: QVQLVQSGAEVKKPGASVKVSCKASGYTFIDHIMNWVRKAPGQGLEWMGRIYPVSGETNYNQKFMGRATFTVDRSTSTVYMELSSLRSEDTAVYYCGRGSYYWNAMDYWGQGTLVTVSS
VL: EIVMTQSPATLSVSPGERATLSCKASQSVDFDGESYMNWYQQKPGQPPRLLIYSASNLESGIPARFSGSGSGTEFTLTISSLQSEDFAVYYCQQSIEDPWTFGQGTKLEIK
notes: humanized from LT-m58
IC50 [12]: 0.208 nM
EC50 [13]: 0.00617 nM

B6: hum_LT-m58-3 (antibody, human IgG4, V domains shown)
VH: QVQLVQSGAEVKKPGASVKVSCKASGYTFIDHIMNWVRKAPGQGLEWMGRIYPVSGETNYNQKFMGRATFTVDRSTSTVYMELSSLRSEDTAVYYCGRGSYYWNAMDYWGQGTLVTVSS
VL: DIVMTQSPDSLAVSLGERATINCKASQSVDFDGDSYMNWYQQKPGQPPKLLIYSASNLESGVPDRFSGSGSGTDFTLTISSLQAEDVAVYYCQQSIEDPWTFGQGTKVEIK
notes: humanized from LT-m58
IC50 [12]: 0.169 nM
EC50 [13]: 0.0112 nM
